Consider eight molecules from publication PMC4933460, “Extracellular Regulation of Bone Morphogenetic Protein Activity by the Microfibril Component Fibrillin-1*” (The Journal of Biological Chemistry, 2016).

The labels stand for the following.
B7: BMP-7 prodomain, full-length PD (residues 30-292), E. coli (domain or fragment)
chain: not shown
notes: also called full-length BMP-7 PD; source: E. coli, purified by chelating chromatography; not shown: His6, C-terminal, kept

In series [1] the target is B7. Nature of the series: SPR; PD/PD interaction: 500-800 RU of full-length PD (30-292) or truncated variants (48-292, 55-292) immobilised, 0-320 nM PD variants injected in HBS-EP with 1 M urea; apparent KD. The conditions noted are these: both partners purified. On the technique in general: In SPR one partner is held on a chip, and binding of the other changes the refractive index at the surface.

In series [2] the target is T1, rF87, N-terminal fragment of fibrillin-1 (Ser19-Ile329) (UniProt P35555 19-329).
T1 construct: The sentence of the methods may also give rF87 the tandem C-terminal Strep-tag; it cannot be told; also called fibrillin-1 (rF87); N-terminal end of fibrillin-1
T1 sequence (P35555 19-329): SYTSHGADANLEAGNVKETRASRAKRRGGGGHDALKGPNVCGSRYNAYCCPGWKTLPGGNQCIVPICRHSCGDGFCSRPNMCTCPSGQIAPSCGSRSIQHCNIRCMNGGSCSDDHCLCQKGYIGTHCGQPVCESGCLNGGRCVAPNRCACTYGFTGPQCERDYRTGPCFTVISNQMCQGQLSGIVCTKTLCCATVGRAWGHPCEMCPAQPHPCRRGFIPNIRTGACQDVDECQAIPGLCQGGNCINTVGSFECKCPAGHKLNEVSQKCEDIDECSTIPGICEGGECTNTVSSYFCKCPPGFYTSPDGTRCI
The experiment in a line: SPR; PD variants immobilised at 500-800 RU, rF87 injected at 0-80 nM in HBS-EP (no urea); apparent KD. The conditions noted are these: both partners purified.

In series [3] the target is B7. Nature of the series: SPR; E. coli-derived full-length PD (30-292) immobilised, GF flown over in HBS-EP with 1 M urea; apparent KD = kd/ka. The conditions noted are these: both partners purified.
The target of series [4] is B7. The experiment in a line: SPR; 1,000 RU of BMP-7 PD immobilised, 0-80 nM GF injected in sodium acetate buffer pH 4.5, 0.15 M NaCl, 3 mM EDTA, 0.005% P20; apparent KD. The conditions noted are these: both partners purified.
Series [5] deals with B7. Nature of the series: SPR; BIAcore 2000; BMP-7 GF covalently coupled to a CM5 chip (500 RU), PD variants flown over in HBS-EP pH 7.4 with 1 M urea; 1:1 model with mass transfer; apparent KD = kd/ka. The conditions noted are these: both partners purified.
Series [6] has as its target T2, BMP-7 PD truncation variant 48-292 (UniProt P18075 48-292).
T2 construct: source: E. coli, purified by chelating chromatography; not shown: His6, C-terminal, kept
The description is as above. The conditions noted are these: both partners purified.

For series [7], the target named is T3, BMP-7 PD truncation variant 55-292 (UniProt P18075 55-292).
T3 construct: source: E. coli, purified by chelating chromatography
The series is described as above. The conditions noted are these: both partners purified.

Series [8] concerns the target T4, BMP-7 PD truncation variant 65-292 (UniProt P18075 65-292).
T4 construct: source: E. coli, purified by chelating chromatography
The series is described as above. To be noted: both partners purified.

Series [9] addresses T5, BMP-7 PD (30-292) H66A (UniProt P18075 30-292, H66A).
T5 construct: source: E. coli, purified by chelating chromatography; not shown: His6, C-terminal, kept
Nature of the series: ELISA; sandwich ELISA of reconstitution in solution: PD variants dialysed with the GF in TBS with 1 M urea overnight, captured by coated monoclonal anti-His6 antibody (C-terminal His6 of the PD), GF detected with an anti-GF antibody. To be noted: both partners purified.

Series [10] addresses T6, BMP-7 PD (30-292) R67A (UniProt P18075 30-292, R67A).
T6 construct: source: E. coli, purified by chelating chromatography; not shown: His6, C-terminal, kept
The series is described as above. The conditions noted are these: both partners purified.

Series [11] addresses T7, BMP-7 PD (30-292) P68A (UniProt P18075 30-292, P68A).
T7 construct: source: E. coli, purified by chelating chromatography; not shown: His6, C-terminal, kept
The description is as above. The conditions noted are these: both partners purified.

Series [12] concerns the molecule itself. Nature of the series: SPR; PD/PD interaction: 500-800 RU of full-length PD (30-292) or truncated variants (48-292, 55-292) immobilised, 0-320 nM PD variants injected in HBS-EP with 1 M urea; apparent KD.
Series [13] deals with the molecule itself. Nature of the series: velocity sedimentation in sucrose gradients; 10 μg BMP-7 complex dialysed against TBS with 1 M urea, 5-20% sucrose gradient, 28 fractions, Western blots for PD and GF. (In general: A western blot detects proteins with antibodies after separation by electrophoresis.)

B1: BMP-7 PD variant 241-292 (domain or fragment, UniProt P18075 241-292, looked up)
chain: HNLGLQLSVETLDGQSINPKLAGLIGRHGPQNKQPFMVAFFKATEVHFRSIR
notes: source: E. coli, purified by chelating chromatography
As to B1, the Kd in series [1] was 39.1 ± 3.3 nM.

B2: BMP-7 PD variant 218-292 (domain or fragment, UniProt P18075 218-292, looked up)
chain: ASEEGWLVFDITATSNHWVVNPRHNLGLQLSVETLDGQSINPKLAGLIGRHGPQNKQPFMVAFFKATEVHFRSIR
notes: also called Ala218-Arg292; source: E. coli, purified by chelating chromatography
With B2, in [1], the Kd is 26.8 ± 3.1 nM.

B3: BMP-7 PD truncation variant 74-292 (domain or fragment)
chain: not shown
notes: as for B1
In the case of B3, the Kd in series [2] was 26 ± 4 nM.

B4: BMP-7 PD variant 30-217 (domain or fragment)
chain: not shown
notes: BMP-7 prodomain, residues 30-217 of the BMP-7 precursor; source: E. coli, purified by chelating chromatography
For B4, in series [2], the Kd was 27 ± 6 nM.

B5: BMP-7 growth factor (GF) dimer (ligand, UniProt P18075 293-431, looked up)
chain: STGSKQRSQNRSKTPKNQEALRMANVAENSSSDQRQACKKHELYVSFRDLGWQDWIIAPEGYAAYYCEGECAFPLNSYMNATNHAIVQTLVHFINPETVPKPCCAPTQLNAISVLYFDDSSNVILKKYRNMVVRACGCH
notes: The same GF is a component of the BMP-7 complex m23; also called BMP-7 GF; mature growth factor; source: stably transfected HEK293 EBNA cells; separated from the purified BMP-7 complex in 8 M urea, 1 M NaCl by chelating chromatography (flow-through)
B5: the Kd was 31.5 ± 0.2 nM in series [3]; 20 ± 0.1 nM in series [4]; 19.4 nM in [5]; 19 ± 1 nM in series [6]; 15 ± 3 nM in [7]; 8 ± 1 nM in series [8]. Further, the “percent inhibition of complex formation” value in series [9] is 30%; in series [10] it was approximately 65%; in [11] it was approximately 65%.

B6: BMP-7 PD variant 30-184 (domain or fragment)
chain: not shown
notes: BMP-7 prodomain, residues 30-184 of the BMP-7 precursor; source: E. coli, purified by chelating chromatography
As for B6, in [2], the Kd worked out at 38 ± 3 nM.

For the molecule B7, the Kd in [2] amounted to 32 ± 7 nM; in series [12] it was 3 ± 0.01 nM.

B8: BMP-7 prodomain of the HEK293 EBNA cell-expressed BMP-7 complex (domain or fragment)
chain: not shown
notes: Glycosylated (carbohydrate chains absent in the E. coli preparation); also called PD; BMP-7 PD; source: stably transfected HEK293 EBNA cells, purified as part of the BMP-7 complex (chelating chromatography, gel filtration)
The term stoichiometry N denotes the number of molecules, sites or subunits per partner or assembly. As to B8, the “stoichiometry N” value in series [13] is 2.
